The values below come from PMC8063088.

Test [1] deals with NET1_(ΔNTR)^Q443N/R445T with C-terminal biotinylated Avi-tag (SPR ligand) (human) (UniProt O95631). Put plainly: SPR; NEO1/DCC:NET1 binding site analysis; biotinylated NET1_(ΔNTR) wild type, Interface-1 and Interface-2 mutants captured at 1007, 1027 and 937 RU; analytes NEO1 and DCC FN456 and FN56, two-fold series from 50 μM; equilibrium, one-site model; 25 °C, 10 mM HEPES pH 7.5, 150 mM NaCl, 0.05% polysorbate-20, 1 mg/ml BSA. For orientation: Surface plasmon resonance follows binding to a sensor surface in real time, without labels.

In test [2] the target is NET1_(ΔNTR)^F55R with C-terminal biotinylated Avi-tag (SPR ligand) (human) (UniProt O95631). Described as above.
Test [3] deals with NET1_(ΔNTR) 'Interface-1' mutant (F55R), made with an N-terminal His6-SUMO tag (human) (UniProt O95631). Put plainly: AUC; sedimentation velocity, 20 °C; binary NEO1_(FN456)-NET1_(ΔNTR) complexes (NET1 wild type at different concentrations, or Interface-1/-2 mutants) mixed equimolar, 10 mM HEPES pH 7.5, 150 mM NaCl, 2 mM CaCl2.
The target of test [4] is NET1_(ΔNTR) 'Interface-2' mutant (Q443N/R445T), made with an N-terminal His6-SUMO tag (human) (UniProt O95631). The test is described as above.
The next test concerns the target 1D4-tagged NET1_(ΔNTR) (UniProt O95631). Put plainly: proximity ligation assay (PLA). The following applies: COS-7 cells co-transfected with NEO1-mVenus and full-length RGMB, incubated with NET1ΔNTR; p = 0.0107; parent: est. 59; read off a plot.

“NEO1 FN type III domains 4 to 6 (NEO1_(FN456)) (domain or fragment)” displayed a fold reduction of binding against wild-type NET1 (ΔNTR) in test [1] of 2 fold. In addition, in test [2], the fold lower affinity than wild-type NET1 (ΔNTR) worked out at 10 fold. The stoichiometry N in test [3] and in test [4] was 1 NET1:NEO1 each time.

As for “full-length GPI-anchored RGMB (RGMBFL), N-terminal FLAG (from UniProt Q6NW40) A186R”, the response (No. of PLA foci) in the test with 1D4-tagged NET1_(ΔNTR) was 22.
